Results from paper PMC10786891, “Massively parallel profiling of RNA-targeting CRISPR-Cas13d”.
Where a chain is given by its changes, count along the chain named. Names may count otherwise.

T1: EsCas13d, nuclease-dead (Eubacterium siraeum, UniProt B0MS50, R295A;H300A;R849A;H854A)
T1 sequence: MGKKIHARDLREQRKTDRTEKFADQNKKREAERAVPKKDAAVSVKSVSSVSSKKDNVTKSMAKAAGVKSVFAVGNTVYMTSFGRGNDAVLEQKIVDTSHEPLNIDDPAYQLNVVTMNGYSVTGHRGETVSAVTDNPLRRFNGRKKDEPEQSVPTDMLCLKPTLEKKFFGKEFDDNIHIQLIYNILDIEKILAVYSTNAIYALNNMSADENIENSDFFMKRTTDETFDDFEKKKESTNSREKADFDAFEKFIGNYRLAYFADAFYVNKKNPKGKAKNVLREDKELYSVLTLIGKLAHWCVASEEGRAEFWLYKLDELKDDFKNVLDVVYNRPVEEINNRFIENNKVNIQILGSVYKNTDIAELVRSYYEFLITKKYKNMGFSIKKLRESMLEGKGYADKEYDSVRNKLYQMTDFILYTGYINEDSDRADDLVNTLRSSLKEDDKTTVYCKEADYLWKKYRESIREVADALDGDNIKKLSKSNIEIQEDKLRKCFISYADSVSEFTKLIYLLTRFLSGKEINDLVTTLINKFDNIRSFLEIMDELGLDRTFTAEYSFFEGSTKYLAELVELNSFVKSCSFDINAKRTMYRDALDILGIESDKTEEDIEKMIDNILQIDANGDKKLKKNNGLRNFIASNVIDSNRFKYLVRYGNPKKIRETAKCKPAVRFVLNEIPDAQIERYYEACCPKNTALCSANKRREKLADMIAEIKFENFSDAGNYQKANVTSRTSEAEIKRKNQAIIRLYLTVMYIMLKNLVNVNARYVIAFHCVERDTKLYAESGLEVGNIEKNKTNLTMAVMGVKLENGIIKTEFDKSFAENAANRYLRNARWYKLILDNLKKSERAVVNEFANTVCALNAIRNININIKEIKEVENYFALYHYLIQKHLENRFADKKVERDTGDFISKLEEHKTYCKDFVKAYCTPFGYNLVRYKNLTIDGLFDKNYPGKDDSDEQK

B1: target 1 insA 3' of 10,insA 3' of 8 (mixed)
RNA 1: CACCCGUGCAAAAAUGCAGGGGUCUAAAACUGAGCGGAUAACCUCUCUAUGG
RNA 2: GGGAAUGGAUCCACAUCUACGAAUUCGUACCAUAGAGAGGUUAAUACCGCUCACCGAGAUCGGAAGAGCACACGU
B2: target 1 insG 3' of 19,insC 3' of 13 (mixed)
RNA 1: B1 RNA 1
RNA 2: GGGAAUGGAUCCACAUCUACGAAUUCGUACCAUGAGAGAGCGUUAUCCGCUCACCGAGAUCGGAAGAGCACACGU
B3: target 1 insC 3' of 22,insC 3' of 19 (mixed)
RNA 1: B1 RNA 1
RNA 2: GGGAAUGGAUCCACAUCUACGAAUUCGUACCCAUCAGAGAGGUUAUCCGCUCACCGAGAUCGGAAGAGCACACGU
B4: target 1 insC 3' of 19,insU 3' of 12 (mixed)
RNA 1: B1 RNA 1
RNA 2: B2 RNA 2 with G34C, C41G, G42U
B5: target 1 insU 3' of 12,insU 3' of 7 (mixed)
RNA 1: B1 RNA 1
RNA 2: B1 RNA 2 with A43U, A46C, C47U
B6: target 1 del7,del18 (mixed)
RNA 1: B1 RNA 1
RNA 2: GGGAAUGGAUCCACAUCUACGAAUUCGUACCAUGAGAGGUUAUCGCUCACCGAGAUCGGAAGAGCACACGU
B7: target 1 insA 3' of 4,insG 3' of 1 (mixed)
RNA 1: B1 RNA 1
RNA 2: B1 RNA 2 with A44U, U45C, A46C, C47G, G49A, C50U, U51C, C52A, A53G
B8: target 1 insU 3' of 21,insC 3' of 18 (mixed)
RNA 1: B1 RNA 1
RNA 2: B3 RNA 2 with C32U, C35A, A36C
B9: target 1 insC 3' of 12,insU 3' of 12 (mixed)
RNA 1: B1 RNA 1
RNA 2: B1 RNA 2 with U41C, A43U, A44U, U45A, A46U
B10: target 1 C7A,U10G (mixed)
RNA 1: B1 RNA 1
RNA 2: GGGAAUGGAUCCACAUCUACGAAUUCGUACCAUAGAGAGGUGAUACGCUCACCGAGAUCGGAAGAGCACACGU
B11: target 1 G15U (mixed)
RNA 1: B1 RNA 1
RNA 2: B10 RNA 2 with G37U, G42U, A45C
B12: target 1 del4,del15 (mixed)
RNA 1: B1 RNA 1
RNA 2: B6 RNA 2 with G34A, A35G, G36A, G45C, C46G
B13: target 1 C7A,G17A (mixed)
RNA 1: B1 RNA 1
RNA 2: B10 RNA 2 with G35A, G42U
B14: target 1 insU 3' of 18,insG 3' of 6 (mixed)
RNA 1: B1 RNA 1
RNA 2: B2 RNA 2 with G34A, A35U, C41G, G42U, U44A, A45U, U46C, C48G
B15: target 1 A18U,U19A (mixed)
RNA 1: B1 RNA 1
RNA 2: B10 RNA 2 with U33A, A34U, G42U, A45C
B16: target 1 insG 3' of 18,insG 3' of 11 (mixed)
RNA 1: B1 RNA 1
RNA 2: B2 RNA 2 with G34A, A35G, C41G, G42U, U43G
B17: target 1 C4G,U11A (mixed)
RNA 1: B1 RNA 1
RNA 2: B10 RNA 2 with U41A, G42U, A45C, C48G
B18: target 1 insA 3' of 17,insA 3' of 13 (mixed)
RNA 1: B1 RNA 1
RNA 2: B2 RNA 2 with G34A, A35G, G36A, C41A
B19: target 1 insC 3' of 5,insU 3' of 4 (mixed)
RNA 1: B1 RNA 1
RNA 2: B1 RNA 2 with A44U, U45C, A46C, C47G, G49C, C50U
B20: target 1 U19G,C22U (mixed)
RNA 1: B1 RNA 1
RNA 2: B10 RNA 2 with C30U, U33G, G42U, A45C
B21: target 1 insA 3' of 11,insA 3' of 2 (mixed)
RNA 1: B1 RNA 1
RNA 2: B1 RNA 2 with U42A, A43U, A46C, C48G, G49C, C50U, U51C, C52A
B22: target 1 insA 3' of 22,insU 3' of 1 (mixed)
RNA 1: B1 RNA 1
RNA 2: GGGAAUGGAUCCACAUCUACGAAUUCGUACACAUAGAGAGGUUAUCCGCUCAUCCGAGAUCGGAAGAGCACACGU
B23: target 1 A9G,A14U (mixed)
RNA 1: B1 RNA 1
RNA 2: B10 RNA 2 with A38U, G42U, A43G, A45C
B24: target 1 insU 3' of 20,insA 3' of 11 (mixed)
RNA 1: B1 RNA 1
RNA 2: B2 RNA 2 with G34U, C41G, G42U, U43A
B25: target 1 insC 3' of 11,insA 3' of 3 (mixed)
RNA 1: B1 RNA 1
RNA 2: B1 RNA 2 with U42C, A43U, A46C, C48G, G49C, C50U, U51A
B26: target 1 A9G,G12C (mixed)
RNA 1: B1 RNA 1
RNA 2: B10 RNA 2 with G40C, G42U, A43G, A45C
B27: target 1 A1G,G15U (mixed)
RNA 1: B1 RNA 1
RNA 2: B10 RNA 2 with G37U, G42U, A45C, A51G
B28: target 1 insC 3' of 13,insU 3' of 4 (mixed)
RNA 1: B1 RNA 1
RNA 2: B1 RNA 2 with G40C, U41G, A43U, A46C, C48G, G49C, C50U
B29: target 1 A14G,U19A (mixed)
RNA 1: B1 RNA 1
RNA 2: B10 RNA 2 with U33A, A38G, G42U, A45C
B30: target 1 G15C (mixed)
RNA 1: B1 RNA 1
RNA 2: B10 RNA 2 with G37C, G42U, A45C
B31: target 1 C4A,U19A (mixed)
RNA 1: B1 RNA 1
RNA 2: B10 RNA 2 with U33A, G42U, A45C, C48A
B32: target 1 insC 3' of 13,insA 3' of 4 (mixed)
RNA 1: B1 RNA 1
RNA 2: B1 RNA 2 with G40C, U41G, A43U, A46C, C48G, G49C, C50A
B33: target 1 A16G,C22U (mixed)
RNA 1: B1 RNA 1
RNA 2: B10 RNA 2 with C30U, A36G, G42U, A45C

Target: T1, EsCas13d, nuclease-dead
Assay: crRNA (strand 1, pre-loaded); Mg2+; 40 mM Tris-HCl pH 7.5, 150 mM NaCl, 6 mM MgCl2, 1 mM DTT, 0.1% Tween-20, 0.2 mg/ml BSA; 25 C; 10 min per concentration, then washed
Details: tags: His6-TwinStrep-SUMO cleaved; N-terminal SNAP kept (SNAP-Surface 488); label: 3' end held by stalled T7 RNA polymerase

Row | Binder | Kd
1 | B1 | 11.3 ± 0.4 nM
2 | B2 | 68 ± 12 nM
3 | B3 | ~70 nM
4 | B4 | 30.6 ± 3.2 nM
5 | B5 | 16.2 ± 0.6 nM
6 | B6 | 58 ± 6 nM
7 | B7 | 5.2 ± 0.4 nM
8 | B8 | 52 ± 6 nM
9 | B9 | 10.2 ± 0.8 nM
10 | B10 | 9.7 ± 0.5 nM
11 | B11 | 18.6 ± 1.1 nM
12 | B12 | 56 ± 13 nM
13 | B13 | 51 ± 5 nM
14 | B14 | 33.2 ± 2.9 nM
15 | B15 | 42 ± 7 nM
16 | B16 | 92 ± 24 nM
17 | B17 | 9 ± 1 nM

Row | Binder | Kd
18 | B18 | 10 ± 0.7 nM
19 | B19 | 15.7 ± 1.3 nM
20 | B20 | 74 ± 16 nM
21 | B21 | 16.1 ± 1.2 nM
22 | B22 | 15 ± 0.9 nM
23 | B23 | 65 ± 18 nM
24 | B24 | 29.6 ± 2.6 nM
25 | B25 | 27.4 ± 2 nM
26 | B26 | 9.7 ± 0.4 nM
27 | B27 | 23 ± 4 nM
28 | B28 | 8.1 ± 0.4 nM
29 | B29 | 91 ± 17 nM
30 | B30 | 47.2 ± 3.4 nM
31 | B31 | 68 ± 15 nM
32 | B32 | 4.86 ± 0.17 nM
33 | B33 | 54 ± 12 nM
